# Laboratory results: doi:10.1101/2025.03.06.641801, “DMBT1 promotes SARS-CoV-2 infection and its SRCR-derived peptide inhibits SARS-CoV-2 infection” (bioRxiv, 2025)
# B1: peptide 7 (CQGRVEVLYRGSWGTV), SRCR-domain-derived peptide of DMBT1 (peptide)
# peptide: CQGRVEVLYRGSWGTV
# notes: Free N-terminal cysteine; earlier synthetic batches formed disulfide-linked homodimers in PBS; also called Pep7
# Biological target: the molecule itself
# Test: reverse-phase HPLC with TOF mass detection; peptide 7 of an earlier (old) synthetic batch in PBS; Agilent HPLC Infinity II 1290 with TOF 6230, 5-65% acetonitrile/water with 0.1% TFA, 40 C
protein,measurement,value
B1,binding result,binds
